“And” between values parts separate entries of the source, which are not always exact repeats. Equal values may be shown once.
How the values were obtained:
[1] = target: Photosystem I (monomer) (Prochlorococcus marinus MIT9313 (endogenous in thylakoid membranes)) (UniProt Q7V510); assay: sucrose gradient centrifugation
[2] = target: Photosystem I (monomer) (Prochlorococcus marinus MIT9313 (endogenous in thylakoid membranes)) (UniProt Q7V510); assay: native gel or EMSA
[3] = target: Photosystem II (monomer, core complex) (Prochlorococcus marinus MIT9313 (endogenous in thylakoid membranes)) (UniProt Q7V6I0); assay: native gel or EMSA
Chain of Photosystem II (monomer, core complex) (Prochlorococcus marinus MIT9313 (endogenous in thylakoid membranes)) (Q7V6I0 whole entry, looked up, one chain of several): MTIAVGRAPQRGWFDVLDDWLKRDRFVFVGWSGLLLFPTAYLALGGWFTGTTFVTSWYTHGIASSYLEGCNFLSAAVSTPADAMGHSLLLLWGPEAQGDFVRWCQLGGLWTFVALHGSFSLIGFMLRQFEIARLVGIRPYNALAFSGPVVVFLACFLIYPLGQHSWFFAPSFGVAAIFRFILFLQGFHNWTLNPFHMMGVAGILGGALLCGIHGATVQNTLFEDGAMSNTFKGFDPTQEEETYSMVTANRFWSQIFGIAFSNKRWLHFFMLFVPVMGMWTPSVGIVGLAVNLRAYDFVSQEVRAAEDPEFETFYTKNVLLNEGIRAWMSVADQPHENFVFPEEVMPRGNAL

[4] = target: Photosystem II (monomer, core complex) (Prochlorococcus marinus MIT9313 (endogenous in thylakoid membranes)) (UniProt Q7V6I0); assay: native gel or EMSA; remark: listed apart in the source
native gel or EMSA = target: the molecule itself; assay: native gel or EMSA

## Photosystem I (monomer) (from UniProt Q7V510 1-776; Q7V511 1-749; Q7V8Y4 1-68) (complex)
[1]
  stoichiometry N: 3
[2]
  stoichiometry N: 3

## Photosystem II (monomer, core complex) (from UniProt Q7V6I0 1-351; Q7V4Q1 1-49; Q7V4P9 1-65)
[3]
  stoichiometry N: 2

B1: light-harvesting antenna protein PcbB (divinyl chlorophyll a/b-binding protein) (natural protein, UniProt Q7V6U4 1-350, looked up)
chain: MQTYGNPNPTYGWWAGNAGTTNRSGKFLAAHIAHTGLMAFWAGSFTLFELSRYDPSVPMGHQPLVALPHLATLGIGVGDGGVITDTYPIVVTAVLHLVLSMVYAAGGLMHSLLFNGDIGEMGVKWARKFDFKWDDPDKLTFILGHHLFLLGLGNVQFVEWAKYYGLYDNAEGVVRTVVPNLNIGMVWNAQFNFLAINSLEDVMGGHAFLALFMMSGGLWHIVTKQAGEYTTFKGKGILSAEAQLSWALAGVGWMALVAAFWCASNTTIYPDTFFGEVLDLKFSISPYWVDTANLPEGTYTSRAWLTNIHYYLGFFYIQGHLWHALRALGFDFKRVSNAIGNADSATITLN
[4]
  stoichiometry N (PcbB per PSII dimer): 8
Native gel or EMSA
  stoichiometry N: 2 and 3 and 4
